Data from patent publication US20070117180.

Sequence of PACE4 (Plasminogen Angiostatin Converting Enzyme of pH 4) (chain, as listed by the source): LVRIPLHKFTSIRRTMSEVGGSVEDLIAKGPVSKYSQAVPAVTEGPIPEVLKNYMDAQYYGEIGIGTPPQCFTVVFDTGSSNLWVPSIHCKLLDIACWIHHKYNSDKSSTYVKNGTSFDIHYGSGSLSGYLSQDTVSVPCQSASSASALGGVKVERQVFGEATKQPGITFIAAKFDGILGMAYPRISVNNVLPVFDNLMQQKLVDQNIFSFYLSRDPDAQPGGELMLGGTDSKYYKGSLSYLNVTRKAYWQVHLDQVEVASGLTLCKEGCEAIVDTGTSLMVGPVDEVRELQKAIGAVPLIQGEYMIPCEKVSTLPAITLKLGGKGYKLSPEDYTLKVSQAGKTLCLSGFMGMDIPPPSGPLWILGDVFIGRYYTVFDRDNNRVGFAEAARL
Sequence of plasminogen (Glu-1) (chain, as listed by the source): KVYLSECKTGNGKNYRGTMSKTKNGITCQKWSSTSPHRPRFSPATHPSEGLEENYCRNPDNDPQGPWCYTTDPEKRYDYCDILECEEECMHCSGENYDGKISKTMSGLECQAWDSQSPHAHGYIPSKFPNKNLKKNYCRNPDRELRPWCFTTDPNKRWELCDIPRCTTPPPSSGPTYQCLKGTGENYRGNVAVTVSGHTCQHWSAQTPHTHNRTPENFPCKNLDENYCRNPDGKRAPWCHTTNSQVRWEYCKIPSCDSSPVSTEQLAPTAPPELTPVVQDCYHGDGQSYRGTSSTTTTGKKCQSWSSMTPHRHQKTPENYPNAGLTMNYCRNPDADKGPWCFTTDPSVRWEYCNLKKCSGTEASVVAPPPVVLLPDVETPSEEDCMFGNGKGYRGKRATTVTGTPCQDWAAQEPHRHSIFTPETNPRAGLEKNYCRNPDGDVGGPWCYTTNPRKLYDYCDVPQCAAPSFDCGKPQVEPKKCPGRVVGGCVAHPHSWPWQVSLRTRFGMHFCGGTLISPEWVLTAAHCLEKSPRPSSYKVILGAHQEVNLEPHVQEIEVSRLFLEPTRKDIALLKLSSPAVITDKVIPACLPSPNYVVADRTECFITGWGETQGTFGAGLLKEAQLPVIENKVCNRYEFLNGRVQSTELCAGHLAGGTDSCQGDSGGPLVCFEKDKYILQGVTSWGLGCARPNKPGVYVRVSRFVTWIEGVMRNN

PACE4 (Plasminogen Angiostatin Converting Enzyme of pH 4)
fragmentation of plasminogen (SDS-PAGE) at neutral and acidic pH (plasminogen (Glu-1)): the enzyme of the present invention fragments plasminogen only at an acidic range of pH | degradation of fibronectin by the enzyme (fibronectin): Fibronectin was degraded restrictedly with this enzyme
